Data as given in US10704030B2, “P450-BM3 variants with improved activity” (Codexis, Inc., priority 2015, dated 2020).

Key:
Assay type in all cases: biochemical
[1] = Validation of generalist properties: oxidation of diclofenac by lyophilized P450-BM3 variant, UPLC-MS; settings: for % Conv. / TON: [Diclofenac] = 1 mM; for TON: TON = [substrate]*% conversion/[P450]
Procedure: (§1) For the production of lyophilized protein powders, LB agar plates supplemented with chloramphenicol (30 μg/mL) were streaked with E. coli containing a desired B. megaterium P450-BM3 variant in an IPTG-inducible vector. The plates were grown at 37° C. for 16 hrs before single clones were selected to inoculate a 15 mL Falcon™ tube (Fisher) containing TB media (3 mL) supplemented with chloramphenicol (30 μg/mL). The tube was shaken at 200 rpm, 30° C., and 85% humidity for 20-24 h to grow the cultures to saturation. Then, 2.5 mL of the overnight culture was used to inoculate sterile 1 L flasks containing TB medium (250 mL) supplemented with chloramphenicol (30 μg/mL), trace element solution (as described above), and 0.05 g/L ammonium iron (III) citrate. After being shaken at 250 rpm, 30° C., and 85% humidity to an OD600 of 0.8-1.2, P450 expression was induced by addition of IPTG (500 uM) and the heme precursor 5-aminolevulinic acid (5-ALA) to a final concentration of 500 uM. The cultures were grown for additional 20-24 hours and centrifuged in pre-weighed 250 mL centrifuge bottles for 20 minutes at 4000 rpm, 4° C. The supernatants were discarded, and the centrifuge bottles containing cell pellets were weighed. The pellets were resuspended in 50 mM potassium phosphate buffer with 2 mM DTT, pH 8.0 (5 mL of buffer per gram of cell pellet). The cells were lysed using a microfluidizer homogenizer, and the suspensions of cells and lysate were collected in sterile 50 mL centrifuge tubes. The samples were centrifuged for 30 minutes at 10,000 rpm, 4° C. The clarified lysate was collected into a plastic petri plate and frozen at −80° C. prior to lyophilization. The enzyme-containing lysates were lyophilized using standard methods known in the art.
(§2) Enzyme stocks (˜12 μM) were prepared by dissolving ˜20 mg of each enzyme in 100 mM potassium phosphate buffer, pH 8.0 (1 mL). The concentration of each enzyme stock solution was determined by the UV-visible absorption spectroscopy (after centrifugation to remove particulates) and diluted to standardize at 12 μM heme protein. Substrate solutions were prepared by dissolving each substrate in DMSO to reach a final concentration of 20 mM or 40 mM. Reaction mix (235 μL) followed by enzyme solution (50 μL) was added to the plates. The substrate stock solution was added to the enzyme solutions (15 μL at the two different concentrations). Each reaction contained 100 mM potassium phosphate, 1.0 mM NADP+, 25 mM glucose, 0.5 mg/mL glucose dehydrogenase, 5% DMSO and substrate at 1 or 2 mM. Loratadine, imatinib, and gefitinib (See, FIG. 1) were selected as substrates in addition to diclofenac to validate improved BM3 variants. The reactions were shaken at 450 rpm at 30° C. over 24 hours. All reactions were diluted with acetonitrile to a final concentration of 0.5 mM substrate. The plates were then centrifuged at 3,000 g for 1 hour at 20° C. The supernatant was diluted 1:1 with acetonitrile, filtered using a 0.4 micron filter, and analyzed by UPLC-MS.
(§3) For UPLC-MS analysis, the quenched and filtered reactions were transferred to 96-well HTP plates for analysis by UPLC on a Waters Acquity H-class system equipped with an autosampler. 1 uL of quenched sample was injected onto an Acquity UPLC HSS T3 column, 100 Å, (1.8 um; 2.1×100 mm). The column was eluted at a constant flow rate of 0.6 mL/min; conditions with solvent A (0.05% trifluoroacetic acid v/v, in H2O) and solvent B (0.05% trifluoroacetic acid v/v, in acetonitrile) used to elute the products of the reaction were: 0-2 min, A/B 95:5; 2-2.9 min, A/B 5:95; 2.9-3 min, A/B 95:5; 3-3.5 min, A/B 95:5. Column eluent was monitored by PDA (200-600 nm) prior to MS analysis in positive ESI mode (desolvation temperature 350° C., 3.25 kV spray voltage, cone voltage 25V). The column eluent was diverted to waste for the first 0.7 minutes of the run. For the remainder of the LC run, both MS (m/z 95-600 scan range) and MS/MS were collected. […]

[2] = Validation of generalist properties: oxidation of loratadine by lyophilized P450-BM3 variant, UPLC-MS; settings: for % Conv. / TON: [Loratadine] = 1 mM; for TON: TON = [substrate]*% conversion/[P450]
Procedure: as §1, §2, §3

[3] = Validation of generalist properties: oxidation of imatinib by lyophilized P450-BM3 variant, UPLC-MS; settings: for % Conv. / TON: [Imatinib] = 1 mM; for TON: TON = [substrate]*% conversion/[P450]
Procedure: as §1, §2, §3

[4] = Validation of generalist properties: oxidation of gefitinib by lyophilized P450-BM3 variant, UPLC-MS; settings: for % Conv. / TON: [Gefitinib] = 1 mM; for TON: TON = [substrate]*% conversion/[P450]
Procedure: as §1, §2, §3

B1: SEQ ID NO: 4: P450-BM3 parental backbone from the commercially available MCYP panel (MCYP-0343; Codexis) (protein)
chain: MTIKEMPQPKTFGELKNLPLLNTDKPVQALMKIADELGEIFKFEAPGCVTRYLSSQRLIKEACDESRFDKNLSQALKFARDFAGDGLVTSWTHEINWKKAHNILLPSFSQQAMKGYHAMMVDIAVQLVQKWERLNADEHIEVSEDMTRLTLDTIGLCGFNYRFNSFYRDQPHPFIISMVRALDEVMNKLQRANPDDPAYDENKRQCQEDIKVMNDLVDKIIADRKARGEQSDDLLTQMLNGKDPETGEPLDDGNISYQIITFLIAGHETTSGLLSFALYFLVKNPHVLQKVAEEAARVLVDPVPSYKQVKQLKYVGMVLNEALRLWPTAPAFSLYAKEDTVLGGEYPLEKGDEVMVLIPQLHRDKTIWGDDVEEFRPERFENPSAIPQHAFKPFGNGQRACIGQQFALHEATLVLGMMLKHFDFEDHTNYELDIKETLTLKPEGFVVKAKSKKIPLGGIPSPSTEQSAKKVRKKAENAHNTPLLVLYGSNMGTAEGTARDLADIAMSKGFAPQVATLDSHAGNLPREGAVLIVTASYNGHPPDNAKQFVDWLDQASADEVKGVRYSVFGCGDKNWATTYQKVPAFIDETLAAKGAENIADRGEADASDDFEGTYEEWREHMWSDVAAYFNLDIENSEDNKSTLSLQFVDSAADMPLAKMHGAFSTNVVASKELQQPGSARSTRHLEIELPKEASYQEGDHLGVIPRNYEGIVNRVTARFGLDASQQIRLEAEEEKLAHLPLAKTVSVEELLQYVELQDPVTRTQLRAMAAKTVCPPHKVELEALLEKQAYKEQVLAKRLTMLELLEKYPACEMKFSEFIALLPSIRPRYYSISSSPRVDEKQASITVSVVSGEAWSGYGEYKGIASNYLAELQEGDTITCFISTPQSEFTLPKDPETPLIMVGPGTGVAPFRGFVQARKQLKEQGQSLGEAHLYFGCRSPHEDYLYQEELENAQSEGIITLHTAFSRMPNQPKTYVQHVMEQDGKKLIELLDQGAHFYICGDGSQMAPAVEATLMKSYADVHQVSEADARLWLQQLEEKGRYAKDVWAG
modifications: P450_BM3
[1]
  % Conv.: +++ (10.01-15.00)
  TON: ‡‡‡ (5001-10000)
[1]; diclofenac, 1 mM substrate loading
  performance (% conversion at 1 mM substrate loading), in words: moderate activity
[2]
  % Conv.: ++++ (15.01-20.00)
  TON: ‡‡‡‡ (10000-50000)
[2]; loratadine, 1 mM substrate loading
  performance (% conversion at 1 mM substrate loading), in words: moderate activity
[3]
  % Conv.: ++ (5.01-10.00)
  TON: ‡‡ (1001-5000)
[3]; imatinib, 1 mM substrate loading
  performance (% conversion at 1 mM substrate loading), in words: low activity
[4]
  % Conv.: + (0-5.00)
  TON: ‡ (0-1000)
[4]; gefitinib, 1 mM substrate loading
  performance (% conversion at 1 mM substrate loading), in words: low activity

B2: SEQ ID NO: 2: P450-BM3 parental backbone from the commercially available MCYP panel; a chimera, P450 domain 86% identical to Bacillus subtilis P450 (protein)
chain: MLMKQASAIPQPKTYGPLKNLPHLEKEQLSQSLWRIADELGPIFRFDFPGVSSVFVSGHNLVAEVCDEERFDKSIEGALEKVRAFSGDGLATSWTHEPNWRKAHNILMPTFSQRAMKDYHEKMVDIATQLIQKWSRLNPNEEIDVADDMTRLTLDTIGLCGFNYRFNSFYRDQPHPFITSMVRALDEAMNKLQRANPDDPAYDENKRQFQEDIKVMNDLVDSIIAERRANGDQDEKDLLARMLNVEDPETGEKLDDENIRFQIITFLIAGHETTSGLLSFAIYCLLTHPEKLKKAQEEADRVLTDDTPEYKQIQQLKYIRMVLNETLRLYPTAPAFSLYAKEDTVLGGEYPISKGQPVTVLIPKLHRDQNAWGPDAEDFRPERFEDPSSIPHHAYKPFGNGQRACIGMQFALQEATMVLGLVLKHFELINHTGYELKIKEALTIKPDDFKITVKPRKTAAINVQRKEQAEQSAKKVRKKAENAHNTPLLVLYGSNMGTAEGTARDLADIAMSKGFAPQVATLDSHAGNLPREGAVLIVTASYNGHPPDNAKQFVDWLDQASADEVKGVRYSVFGCGDKNWATTYQKVPAFIDETLAAKGAENIADRGEADASDDFEGTYEEWREHMWSDVAAYFNLDIENSEDNKSTLSLQFVDSAADMPLAKMHGAFSTNVVASKELQQPGSARSTRHLEIELPKEASYQEGDHLGVIPRNYEGIVNRVTARFGLDASQQIRLEAEEEKLAHLPLAKTVSVEELLQYVELQDPVTRTQLRAMAAKTVCPPHKVELEALLEKQAYKEQVLAKRLTMLELLEKYPACEMKFSEFIALLPSIRPRYYSISSSPRVDEKQASITVSVVSGEAWSGYGEYKGIASNYLAELQEGDTITCFISTPQSEFTLPKDPETPLIMVGPGTGVAPFRGFVQARKQLKEQGQSLGEAHLYFGCRSPHEDYLYQEELENAQSEGIITLHTAFSRMPNQPKTYVQHVMEQDGKKLIELLDQGAHFYICGDGSQMAPAVEATLMKSYADVHQVSEADARLWLQQLEEKGRYAKDVWAG
modifications: P450_BM3
notes: P450-BM3 parental backbone from the commercially available MCYP panel; a chimera, P450 domain 86% identical to Bacillus subtilis P450
[1]
  % Conv.: + (0-5.00)
  TON: ‡ (0-1000)
[2]
  % Conv.: + (0-5.00)
  TON: ‡ (0-1000)
[3]
  % Conv.: ++ (5.01-10.00)
  TON: ‡‡ (1001-5000)
[4]
  % Conv.: + (0-5.00)
  TON: ‡ (0-1000)
